# Laboratory results reported in patent US20150376264A1 (CALIFORNIA INSTITUTE FOR BIOMEDICAL RESEARCH, published 2015).
# Biological target: Leptin receptor
# Experiment: cell-based or functional assay
binder,measurement,value
"BLV1H12 hLeptin fusion protein (antibody, human IgG1) heavy: not shown light: QAVLNQPSSVSGSLGQRVSITCSGSSSNVGNGYVSWYQLIPGSAPRTLIYGDTSRASGVPDRFSGSRSGNTATLTISSLQAEDEADYFCASAEDSSSNAVFGSGTTLTVLGQPKSPPSVTLFPPSTEELNGNKATLVCLISDFYPGSVTVVWKADGSTITRNVETTRASKQSNSKYAASSYLSLTSSDWKSKGSYSCEVTHEGSTVTKTVKPSECS","EC50 (Baf3-LepR cell proliferation, AlamarBlue)",0.0575 nM
